# According to US20190359693A1 (Janssen / Centocor, published 2019):
# B1: SD1045 (VHH)
# VHH: EVQLVESGGGLVQAGGSLRLSCAASGSSFSINVMGWYRQAPGKQREMVATITYGGSTNYVDSVKGRFTISRDNAKNTVYLQMNSLKPEDTAVYYCNSRLAQINYWGQGTQVTVSS
# notes: llama sdAb
# B2: SD1083 (VHH)
# VHH: EVQLVESGGGLVQPGGSLRLSCAATGFTLENKAIGWFRQTPGSEREGVLCISKSGSWTYYTDSMRGRFTISRDNAENTVYLQMDSLKPEDTAVYYCATTTAGGGLCWDGTTFSRLASSWGQGTQVTVSS
# B3: SD1086 (VHH)
# VHH: EVQLVESGGGLVQAGGSLRLSCTASGSISSIDYMRWYRQYPGKHRELVATITSGGAADSRDSVKGRFTVSRGNAANTMYLQMNNLKPEDTAVYYCNAYGLEIGAHWGRGTQVTVSS
# B4: SD1087 (VHH)
# VHH: EVQLVESGGGLVQPGGSLRLSCVISGLSLDTYAVGWFRQAPGKEREGITCISSGHGMTYYADSVKGRFTVSTDNAKNTVYLQMNGLQPEDTARYYCATESRYYCSDNWPAPQRYIYWGQGTQVTVSS
# B5: MD1209 (VHH)
# chain: EVQLVESGGGLVQAGGSLKLSCAASGRTYAMGWFRQAPGKEREFVAHINALGTRTYYSDSVKGRFTISRDNAKNTEYLEMNNLKPEDTAVYYCTAQGQWRAAPVAVAAEYEFWGQGTQVTVSSAAAGGGGSGGGGSGGGGSGGGGSGGGGSGGGGSGGGGSEVQLVESGGGLVQAGGSLKLSCAASGRTYAMGWFRQAPGKEREFVAHINALGTRTYYSDSVKGRFTISRDNAKNTEYLEMNNLKPEDTAVYYCTAQGQWRAAPVAVAAEYEFWGQGTQVTVSS
# B6: MD1212 (VHH)
# chain: EVQLVESGGGLVQPGGSLRLSCAVSISIFDIYAMDWYRQAPGKQRDLVATSFRDGSTNYADSVKGRFTISRDNAKNTLYLQMNSLKPEDTAVYLCHVSLYRDPLGVAGGMGVYWGKGALVTVSSAAAGGGGSGGGGSGGGGSGGGGSGGGGSGGGGSGGGGSEVQLVESGGGLVQPGGSLRLSCAVSISIFDIYAMDWYRQAPGKQRDLVATSFRDGSTNYADSVKGRFTISRDNAKNTLYLQMNSLKPEDTAVYLCHVSLYRDPLGVAGGMGVYWGKGALVTVSS
# B7: MD1211 (bispecific antibody)
# chain: EVQLVESGGGLVQPGGSLRLSCAVSISIFDIYAMDWYRQAPGKQRDLVATSFRDGSTNYADSVKGRFTISRDNAKNTLYLQMNSLKPEDTAVYLCHVSLYRDPLGVAGGMGVYWGKGALVTVSSAAAGGGGSGGGGSGGGGSGGGGSGGGGSGGGGSGGGGSEVQLVESGGGLVQAGGSLKLSCAASGRTYAMGWFRQAPGKEREFVAHINALGTRTYYSDSVKGRFTISRDNAKNTEYLEMNNLKPEDTAVYYCTAQGQWRAAPVAVAAEYEFWGQGTQVTVSS
# B8: MD1210 (bispecific antibody)
# chain: EVQLVESGGGLVQAGGSLKLSCAASGRTYAMGWFRQAPGKEREFVAHINALGTRTYYSDSVKGRFTISRDNAKNTEYLEMNNLKPEDTAVYYCTAQGQWRAAPVAVAAEYEFWGQGTQVTVSSAAAGGGGSGGGGSGGGGSGGGGSGGGGSGGGGSGGGGSEVQLVESGGGLVQPGGSLRLSCAVSISIFDIYAMDWYRQAPGKQRDLVATSFRDGSTNYADSVKGRFTISRDNAKNTLYLQMNSLKPEDTAVYLCHVSLYRDPLGVAGGMGVYWGKGALVTVSS
# Key:
# HA of H3N2 A/HK/1/68 [1] = target: T1, HA of H3N2 A/HK/1/68 (influenza A virus, UniProt Q91MA7 17-530); test: BLI (Octet)
# HA of H3N2 A/HK/1/68 [2] = target: T1, HA of H3N2 A/HK/1/68; test: cell-based or functional assay
# [3] = target: HA of H10N7 A/Chick/Germany/N/49 (influenza A virus); test: cell-based or functional assay
# HA of H7N7 A/PR8 H7N7-NY = HA of H7N7 A/PR8 H7N7-NY (influenza A virus); test: cell-based or functional assay
# [4] = target: HA of H4 A/WF/HK/MPA892/06 (influenza A virus); test: cell-based or functional assay
# [5] = target: HA of B/Malaysia/2506/04 (Victoria) (influenza B virus); test: cell-based or functional assay
# HA of B/Lee/40 [6] = target: T2, HA of B/Lee/40 (influenza B virus, UniProt P03460 16-552); test: cell-based or functional assay
# [7] = target: HA of B/Harbin/7/94 (Yamagata) (influenza B virus); test: cell-based or functional assay
# [8] = target: HA of H5N1 A/Vietnam/1194/04 (influenza A virus); test: cell-based or functional assay
# HA of B/Lee/40 [9] = target: T2, HA of B/Lee/40; test: cell-based or functional assay; remark: listed apart in the source
# [10] = target: HA of B/Harbin/7/94 (Yamagata) (influenza B virus); test: cell-based or functional assay; remark: listed apart in the source
# [11] = target: hemagglutinin (HA) of influenza virus H1N1 A/Puerto Rico/8/34-MA (influenza A virus); test: cell-based or functional assay
# [12] = target: hemagglutinin (HA) of influenza virus H3N2 A/Wisconsin/67/05 (influenza A virus); test: cell-based or functional assay
# [13] = target: hemagglutinin (HA) of influenza virus H5N1 A/Vietnam/1194/04 (influenza A virus); test: cell-based or functional assay
# [14] = target: hemagglutinin (HA) of influenza virus H1N1 A/California/07/09 (influenza A virus); test: cell-based or functional assay
# [15] = target: recombinant HA of H1N1 A/New Caledonia/20/1999 (influenza A virus, UniProt Q289M7 18-565); test: biolayer interferometry (Octet), steady-state fit, geometric mean
Binder,VNA titer [5] [nM],VNA titer [7] [nM],neutralization titer [11] [nM],neutralization titer [12] [nM],neutralization titer [13] [nM],neutralization titer [14] [nM],Kd [15] [nM],also measured
B1,–,–,–,–,–,–,–,binding result (HA of H3N2 A/HK/1/68 [1]): no binding (tested: HA 20 µg/mL); VNA titer (HA of H3N2 A/HK/1/68 [2]): > 1000 nM; VNA titer [3]: 985 nM; VNA titer (HA of H7N7 A/PR8 H7N7-NY): > 1000 nM; VNA titer [4]: 492 nM
B2,294,259,–,–,–,–,–,VNA titer (HA of B/Lee/40 [6]): 217 nM; hemagglutination inhibition titer [8]: > 50 µg/mL; hemagglutination inhibition titer (HA of B/Lee/40 [9]): > 50 µg/mL; hemagglutination inhibition titer [10]: > 50 µg/mL
B3,> 1000,> 1000,–,–,–,–,–,–
B4,79.1,503,–,–,–,–,–,VNA titer (HA of B/Lee/40 [6]): 6.5 nM; hemagglutination inhibition titer [8]: > 50 µg/mL; hemagglutination inhibition titer (HA of B/Lee/40 [9]): > 50 µg/mL; hemagglutination inhibition titer [10]: > 50 µg/mL
B5,–,–,221,109,< 1000,10.1,1.9,–
B6,–,–,11.7,49.5,14.8,3.7,1.4,–
B7,–,–,9.9,19.3,7.6,4,1.7,–
B8,–,–,21.9,118,21.4,2.5,0.7,–
